The source of these data is paper PMC5384396.

For assay [1], the target named is histidine-tagged recombinant FcγRIIIa (158V) (human). Kind of assay: SPR. A general note: Surface plasmon resonance follows binding to a sensor surface in real time, without labels.
For assay [2], the target named is hGITR on hGITR-transfected Jurkat cells (human) (UniProt Q9Y5U5).
Assay [3] has the same target. The source holds these as a separate data set.

Chain of hGITR on hGITR-transfected Jurkat cells (human) (Q9Y5U5 26-241): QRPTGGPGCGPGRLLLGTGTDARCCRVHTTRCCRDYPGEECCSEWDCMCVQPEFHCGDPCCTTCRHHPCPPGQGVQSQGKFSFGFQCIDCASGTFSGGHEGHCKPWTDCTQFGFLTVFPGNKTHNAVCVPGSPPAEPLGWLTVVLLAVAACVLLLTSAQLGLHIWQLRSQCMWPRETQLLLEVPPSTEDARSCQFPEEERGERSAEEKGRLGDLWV

Regarding IgG1 isotype control antibody, the Kd (as a rule, the free concentration of one partner at which half of the binding sites on the other are occupied at equilibrium, for simple one-to-one binding) in assay [1] came out at 175 nM. “hGITRL FP with the human matrilin 1 trimerization domain (from UniProt Q9UNG2 49-177) (Fc fusion)” came in with an NFκB-luciferase reporter in hGITR-transfected Jurkat cells, agonism EC50 in assay [2] of 0.92 nM. The substance “IgG4 Fc-containing GITRL FP (from UniProt Q9UNG2 49-177) (Fc fusion)” yielded a Jurkat-based NFκB reporter gene assay, EC50, comparison of Fc isotypes (Fig. S5) in assay [3] of 0.3 nM.
